Measured values taken from the supplement of paper PMC9732359.
± gives the uncertainty stated by the source.

Test: protein stability index of a GFP-peptide fusion (yeast GPS) (PSI 1-4); higher = more stable; sorted into four equal gates, so the index is relative within each strain
How it was run: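 Each library plasmid carries Cherry plus GFP with a tiled 17-residue yeast protein peptide fused downstream, and the pooled library was carried in yeast. Mid-log cultures in leucine-free medium were sorted into four equal gates by GFP/Cherry ratio. Reads from Illumina sequencing of PCR-amplified plasmids from each gate were assigned to strains by barcodes. Per peptide, the protein stability index was computed as the summed products of gate read frequency and gate number.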

Sequence | protein stability index (doa10∆) | protein stability index (pdr5∆) | protein stability index (san1∆) | protein stability index (ubr1∆)
IPNLTAKPFQVTKEYFQ [FAS1] | 2.61 ± 0.051 | 2.95 ± 0.049 | 3.04 ± 0.061 | 2.79 ± 0.041
FLFHAISGREGLVDTAV [RPO31] |  | 2.89 ± 0.28 |  | 2.55 ± 0.13
FKKAAPSPISHVAEIRS [RPB2] | 1.92 ± 0.051 | 1.94 ± 0.046 | 1.77 ± 0.058 | 1.81 ± 0.036
KNGKIYLKHNSIAEEIP [RET1] | 2.97 ± 0.059 | 2.81 ± 0.05 | 2.61 ± 0.074 | 2.52 ± 0.037
PMASSSSFGSESLTFNE [SWI1] | 3.15 ± 0.043 | 3.16 ± 0.041 | 3.14 ± 0.035 | 3.099 ± 0.029
QALDISKKGKPTVNKKP [SRP72] | 2.59 ± 0.16 | 2.82 ± 0.1 | 2.36 ± 0.16 | 2.3 ± 0.14
QHEQQKQQEQLEQQKQP [YMR153W/NUP53] | 3.37 ± 0.056 | 3.35 ± 0.057 | 3.04 ± 0.049 | 3.15 ± 0.046
ISQKLHDSILHSRILPK [RRP43] | 2.57 ± 0.046 | 2.58 ± 0.033 | 2.62 ± 0.037 | 2.8 ± 0.038
GSRMVRELFVMAREHAP [RPT6] | 1.82 ± 0.074 | 1.68 ± 0.073 | 1.09 ± 0.27 | 1.54 ± 0.079
PFTNEAHMWPRVHDQPL [POP3] |  | 1.36 ± 0.24 |  | 
WDLLQSGSQNISEFDSF [RPN12] | 3.38 ± 0.16 | 3.14 ± 0.09 | 3.05 ± 0.12 | 3.22 ± 0.067
NGDNLYGNDEEVLFYED [RPN4] | 3.07 ± 0.1 | 3.22 ± 0.12 | 3.1 ± 0.096 | 2.95 ± 0.074
GALIHKAGLMTGGISGD [SMC1] | 2.63 ± 0.16 | 2.73 ± 0.11 | 2.72 ± 0.06 | 2.75 ± 0.087
AGTKITICIELKTVLHN [RGR1] | 1.18 ± 0.062 | 1.32 ± 0.07 | 1.39 ± 0.13 | 1.49 ± 0.09
TEQQIEVPEGVTVSIKS [RPL9A] | 2.46 ± 0.069 | 2.3 ± 0.051 | 1.99 ± 0.073 | 2.85 ± 0.043
VPHSHPSDMVIPDHLAE [SNF12] | 2.04 ± 0.047 | 2.39 ± 0.047 | 2.22 ± 0.068 | 2.31 ± 0.03
IEKLTDGHLRAPLKHGV [BRR2] | 1.72 ± 0.053 | 2.86 ± 0.058 | 3.01 ± 0.051 | 2.04 ± 0.065
VDIQIINQYQLLYNLKN [SWI1] | 1.68 ± 0.031 | 1.54 ± 0.041 | 1.49 ± 0.086 | 1.33 ± 0.033
FPRSRSRSRSSIRSISP [ESC2] | 2.86 ± 0.2 | 3.18 ± 0.13 | 3.03 ± 0.09 | 3.34 ± 0.19
DESLIRELYKYVRKHDP [PRP28] | 3.4 ± 0.14 | 3.48 ± 0.16 | 2.83 ± 0.17 | 3.09 ± 0.12
LSFIQVRIDLGTIDKLQ [RPO31] | 1.37 ± 0.056 | 1.71 ± 0.056 | 2.06 ± 0.077 | 2.67 ± 0.047
LDVSSDRRKARKAYFTA [RPL26A] | 1.79 ± 0.081 | 1.26 ± 0.082 | 2.42 ± 0.1 | 2.12 ± 0.07
TINEMMKHLGRSEGNPV [FAS2] | 2.5 ± 0.09 | 2.76 ± 0.064 | 2.53 ± 0.066 | 2.94 ± 0.072
KIGDLGLARKFHNMLQT [SSN3] | 2.9 ± 0.085 | 3.14 ± 0.1 | 3.23 ± 0.058 | 3.37 ± 0.045
RCKIYFFYLRISKKLQF [PCI8] | 1.29 ± 0.06 | 1.31 ± 0.046 | 1.19 ± 0.093 | 1.35 ± 0.052
QRITIPNVCNMKQYRDF [PRP28] | 2.85 ± 0.18 | 2.55 ± 0.092 | 2.07 ± 0.11 | 2.58 ± 0.11
ILSEILCQINKCSTRGL [YML103C/NUP188] | 1.31 ± 0.088 | 1.55 ± 0.084 | 1.98 ± 0.097 | 2 ± 0.057
TILCTPTGGKAKLSEGT [RPS27A] | 2.83 ± 0.097 | 2.85 ± 0.1 | 3.12 ± 0.072 | 2.74 ± 0.056

Sequence | protein stability index (doa10∆) | protein stability index (pdr5∆) | protein stability index (san1∆) | protein stability index (ubr1∆)
QLAQIRQFLKANKTNLI [YML103C/NUP188] | 2.65 ± 0.057 | 2.81 ± 0.068 | 2.86 ± 0.049 | 2.93 ± 0.04
LLDAGCKVVAEMIRGRS [SKP1] |  | 2.06 ± 0.14 |  | 1.91 ± 0.1
KFFTQSNLEKLPKYKEK [MED7] | 2.43 ± 0.046 | 2.7 ± 0.048 | 2.82 ± 0.053 | 2.62 ± 0.04
TFHDELNLKFKEKWPSL [YML103C/NUP188] | 3.23 ± 0.095 | 3.57 ± 0.2 | 2.81 ± 0.082 | 3.09 ± 0.098
YAIIINYTKDNEYYPMC [YCS4] | 1.36 ± 0.071 | 1.44 ± 0.092 | 1.61 ± 0.13 | 1.51 ± 0.082
NIEEMARVILYLKNVLF [SIN4] | 2.23 ± 0.075 | 2.31 ± 0.079 | 2.01 ± 0.11 | 2.05 ± 0.037
ELYSFQQLVDSEKRLDH [SNF12] | 1.35 ± 0.095 | 2.26 ± 0.074 | 2.26 ± 0.11 | 1.57 ± 0.053
NLRLLNSIDSTSRIELE [ECM29] | 2.91 ± 0.094 | 3.08 ± 0.077 | 2.92 ± 0.064 | 2.98 ± 0.057
FRISLGLPVGAIMNCAD [RPL23A] | 1.95 ± 0.045 | 1.9 ± 0.044 | 1.57 ± 0.057 | 1.7 ± 0.035
TYRSRAQQVPPYGVYHP [SIN4] | 2.77 ± 0.1 | 2.13 ± 0.085 | 2.8 ± 0.063 | 2.71 ± 0.078
SNDLDKFFQKKIHLYEK [YGL172W/NUP49] | 2.21 ± 0.057 | 2.22 ± 0.067 | 1.96 ± 0.061 | 2.32 ± 0.052
MSLSVAEKSYLYDSLAS [RRP42] |  | 1.64 ± 0.18 |  | 
SKQLSLEEKKKRPNNKT [IRR1] | 2.5 ± 0.11 | 2.59 ± 0.094 | 2.21 ± 0.15 | 2.79 ± 0.096
TVSPTQDKDAIRKQPDD [SIR2] | 2.99 ± 0.076 | 3.11 ± 0.087 | 2.99 ± 0.067 | 2.9 ± 0.096
RRFKNGFQTGSASKASA [RPL37A] | 2.99 ± 0.053 | 2.98 ± 0.056 | 3.06 ± 0.067 | 2.88 ± 0.043
PKDTSAATMTSAPPPAL [RGR1] | 2.49 ± 0.1 | 2.59 ± 0.1 | 2.51 ± 0.069 | 2.85 ± 0.097
ENDEEFYKNKYSSKPYK [RPN2] | 2.4 ± 0.062 | 2.61 ± 0.097 | 2.36 ± 0.12 | 2.19 ± 0.17
RPDLIKEDHPLEFYKDK [SIR3] | 3.17 ± 0.07 | 3.23 ± 0.055 | 3.21 ± 0.039 | 3.08 ± 0.074
PASNILRRTTQRVFDET [YDL116W/NUP84] | 2.66 ± 0.13 | 2.66 ± 0.061 | 2.77 ± 0.13 | 2.62 ± 0.1
NQTNINSLAVRGKDCTV [SCL1] | 2.83 ± 0.14 | 3.26 ± 0.088 | 3.29 ± 0.068 | 3.19 ± 0.12
YIYSQETKSWINESAEN [MED1] | 2.58 ± 0.047 | 2.66 ± 0.039 | 2.46 ± 0.048 | 2.48 ± 0.031
DTSLCINGEPSIHVNRV [RRI1] | 2.99 ± 0.081 | 3.04 ± 0.073 | 2.99 ± 0.053 | 3.04 ± 0.05
ENVKIINYLLTLAITTV [RPN2] | 2.95 ± 0.06 | 3.03 ± 0.057 | 2.56 ± 0.065 | 2.99 ± 0.055
IVEEDLEPFEASKETAE [FAS2] | 3.42 ± 0.18 | 3.21 ± 0.11 | 3.1 ± 0.087 | 3.25 ± 0.089
ENEFVVLLDARDIEKIT [CDC53] |  | 2.98 ± 0.17 |  | 3.08 ± 0.14
KFILQILQILNLMILNT [YML103C/NUP188] | 1.3 ± 0.081 | 1.29 ± 0.064 | 1.42 ± 0.21 | 2.09 ± 0.03
SKATGAPSANQGDEALS [RTT102] | 3.28 ± 0.12 | 3.32 ± 0.1 | 3.13 ± 0.1 | 3.14 ± 0.24
